The target of the series is T1, CasEnd-21 (synthetic construct).
T1 chain: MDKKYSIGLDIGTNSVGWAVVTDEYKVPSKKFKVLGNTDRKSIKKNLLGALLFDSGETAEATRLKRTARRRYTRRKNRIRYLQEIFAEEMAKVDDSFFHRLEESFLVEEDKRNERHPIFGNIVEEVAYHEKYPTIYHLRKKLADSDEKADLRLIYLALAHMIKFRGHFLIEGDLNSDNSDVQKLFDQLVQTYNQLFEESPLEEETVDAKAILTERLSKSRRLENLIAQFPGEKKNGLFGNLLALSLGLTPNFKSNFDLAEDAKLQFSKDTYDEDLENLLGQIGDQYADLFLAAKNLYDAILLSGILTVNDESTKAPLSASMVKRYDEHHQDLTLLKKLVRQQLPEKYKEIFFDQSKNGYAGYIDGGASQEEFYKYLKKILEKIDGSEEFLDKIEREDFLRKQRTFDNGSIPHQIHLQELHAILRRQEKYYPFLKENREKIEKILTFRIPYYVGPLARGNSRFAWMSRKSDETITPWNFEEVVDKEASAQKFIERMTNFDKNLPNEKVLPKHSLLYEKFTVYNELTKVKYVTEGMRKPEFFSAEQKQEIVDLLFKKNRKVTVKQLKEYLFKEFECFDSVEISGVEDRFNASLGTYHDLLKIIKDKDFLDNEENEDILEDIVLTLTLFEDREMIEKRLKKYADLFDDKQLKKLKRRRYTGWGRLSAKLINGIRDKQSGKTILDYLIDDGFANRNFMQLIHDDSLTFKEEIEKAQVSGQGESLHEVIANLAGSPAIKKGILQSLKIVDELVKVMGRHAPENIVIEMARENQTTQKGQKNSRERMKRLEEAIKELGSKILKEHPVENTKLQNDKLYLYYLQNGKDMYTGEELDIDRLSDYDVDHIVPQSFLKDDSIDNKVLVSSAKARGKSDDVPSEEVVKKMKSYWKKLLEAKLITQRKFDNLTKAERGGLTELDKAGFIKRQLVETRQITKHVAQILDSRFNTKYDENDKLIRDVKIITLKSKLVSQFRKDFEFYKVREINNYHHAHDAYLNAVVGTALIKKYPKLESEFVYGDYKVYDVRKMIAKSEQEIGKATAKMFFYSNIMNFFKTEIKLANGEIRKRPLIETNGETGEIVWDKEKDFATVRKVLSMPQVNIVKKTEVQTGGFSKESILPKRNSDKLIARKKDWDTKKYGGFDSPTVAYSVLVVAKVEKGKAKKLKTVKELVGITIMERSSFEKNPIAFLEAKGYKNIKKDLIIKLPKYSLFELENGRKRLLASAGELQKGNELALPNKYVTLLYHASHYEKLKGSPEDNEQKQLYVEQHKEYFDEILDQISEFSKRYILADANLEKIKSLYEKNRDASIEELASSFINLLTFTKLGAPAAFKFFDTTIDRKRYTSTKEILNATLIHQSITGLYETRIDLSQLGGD
Description: cell_activity; +++; HEK293T; PAM not stated. Summed up:
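Editing activity was scored as the fraction of GFP+ cells on day 4 by flow cytometry. BFP-expressing HEK293T cells (250,000) received by nucleofection 200 ng plasmid for the RT-Cas fusion protein and 200 ng template RNA plasmid designed to convert BFP to GFP.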

B1: BFP-to-GFP template RNA ; BFP reporter protospacer (ssRNA ; dsDNA)
RNA: GCCGAAGCACUGCACGCCGUGUUUUAGAGCUAGAAAUAGCAAGUUAAAAUAAGGCUAGUCCGUUAUCAACUUGAAAAAGUGGCACCGAGUCGGUGCACCCUGACGUACGGCGUGCAGUGCUU
DNA 1: GCCGAAGCACTGCACGCCGT
DNA 2: ACGGCGTGCAGTGCTTCGGC
Consider B1, for which the activity is ≥ 100 % of reference.

Values taken from patent publication US20250092426, “CAS ENDONUCLEASES AND RELATED METHODS” (Flagship Pioneering Innovations VII, LLC, published 2025).
